Test results: US12472269B2, “Liver-specific inducible promoters and methods of use thereof” (ASKBIO INC., priority 2019, dated 2025)

Experiments:
CD1 male mice = test: In vivo bioluminescence imaging of mice injected with AAV9 constructs, induction by phenobarbital
Experimental: • Seed HEK 293-AAV cells in 15 cm plates. To be 70-80% confluent on the day of transfection • Final volume on each plate: 15 ml Day 2: Prepare Transfection Mix: • DNA mix/plate: pDG9 (Packaging plasmid for AAV9): 10.5 μg/pHGTI (Ad. Helper plasmid): 31.5 μg/Vector plasmid: 10.5 μg/Prepare in serum free DMEM/Optimem • Transfer mix/plate: PEI: 125 μl/Prepare in serum free DMEM/Optimem • Add DNA mix into transfection mix. Mix and leave at room temperature for 15-20 mins. • Add 3 ml of transfection mix to each plate drop-wise and gently distribute. Incubate for 24 h. Day 3: • Replace media with 15 ml DMEM supplemented with P/S and 2% FCS. Leave for 48 h. Day 5: • Collect supernatant and pool in 50 ml tubes, 25 ml each tube. Store at −20° C. • Collect cells: Add 5 ml of PBS to each plate→scrape and collect in 50 ml tubes. • To wash plates, add another 1 ml of PBS and collect. • Spin at 1500 rpm for 5 mins. • Remove supernatant and resuspend pelleted cells in 1 ml/plate TD lysis buffer→pool • Store at −80′C. Endonuclease Treatment Cells: • Freeze and thaw pellets 5 times→˜20 mins at 37° C. then ˜20 mins in dry ice (or −80° C.). • Add 25 μl/ml cells of 20% Deoxycholate (or 50 μl/ml of 10% Deoxycholate). • Add 8 μl/ml cells of benzonase. • Incubate at 37° C. for 30 mins. • Spin at 4 Krpm for 30 mins. • Filter supernatant using […] filters. • Store at 4° C. for up to 24 h. Supernatant: • Add 2.5 μl/25 ml supernatant of benzonase. • Add 50 μl/25 ml supernatant of MgSO4. • Incubate at 37° C. for 30 mins. • Spin at 4 Krpm for 30 mins. • Filter supernatant using […] filters. • Store at 4′C for up to 24 h. Hplc Purification • Place both lines in 20% ETOH→template→system wash • Put line A in PBS and line B in Glycine→template→system wash • Place the column in the machine→manual run→flowrate: 5 ml/min→Run for 25 ml or until the UV line is flat. • Prepare FACS tubes (10 for cells and more for supernatant): add 30 μl/tube Tris→put in the machine to collect vectors. • Place the waste lines in a separate tube to be able to run them again through the column. • Run samples (flowrate low, depending on how fast the system and how concentrated the sample is; for cells it is slower, for supernatant it is higher). • After running the waste through the column, wash with PBS→flowrate: 5 ml/min until the UV line is flat. • Set→fraction size: 1 ml; Flowrate: 1 ml/min; concentration % B: 100%→run. • Start collecting: Look for the peak. The peak indicates vector purification. Mark the tubes containing these vectors. • Save programme before exiting. • Wash with PBS→75 ml, 5 ml/min • Wash with Na3PO4 (to store the column in)→75 ml, 5 ml/min • Remove column and store at 4° C. • Wash the machine with PBS→template→system wash • Wash the machine with 20% ETOH→template→system wash • Put both lines in 20% ETOH and shut down • Add 2 L of PBS into a big bucket and put the Dialysis cassette (Side-A-Lyzer; Thermo scientific) to prime. • Collect the vectors from the marked FACS tubes using a syringe and needle and add into the dialysis cassette→remove excess air from the membrane, carefully place the rubber on top of the cassette and let it float in the PBS-containing bucket→leave over night at room temperature on a slow rotating rotor. Next Day: • Prime membrane by adding 5 ml PBS onto a centrifugal filter (Amico Ultra 15; MERCK)→spin for 5 mins at 4 Krpm • Remove excess PBS from inside the membrane. • Take vectors out from the cassette and load onto the membrane→spin for 5 mins at 4 Krpm • Wash the membrane with the vectors inside few times, then collect into 2 ml centrifuge tube filter 0.22 μM (Spin-X; COSTAR) • Spin for 3 mins at 13 Krpm. • Remove filter and aliquot: 1×100 μl (for injection), the rest in 10-2 μl aliquots. • Store in −80° C. • Virus quantification was performed using qRT-PCR with primers and probes for the luciferase gene. Mice Experiment […]

[1] = tested on: Huh7 and ARE primary cells; test: Effect of AAV ITRs: pAAV constructs transfected into Huh7 and ARE primary cells, compared with pGL4.10; format: cell-based, human; details: mean of 3 biological replicates
Source text: Following from Example 3, it was decided to take PB1-MinTK and PB1-2-MinTk forward for in vivo studies. To facilitate this the two aforementioned constructs were cloned into pAAV vector (Takara, Clontech) to allow for the preparation of AAV viruses. The inserts where cloned using restriction digest of the pAAV plasmid and PCR amplification of the original pGL4.10 constructs.
We investigated the effect of the Inverted Terminal Repeats (ITRs) on the activity of the promoters. This was done as we have observed interference from the AAV ITRs in other projects. To this end, the pAAV-PB1-MinTk and pAAV-PB1-2-MinTk were transfected into Huh7 and ARE primary cells as previously described and their activity assessed.

AXOL ARE-hepatocytes = test: Luciferase expression from PBREM promoters in AXOL ARE-hepatocytes, induction by CITCO; format: cell-based, human; details: induction with CITCO, mean of 3 biological replicates
Source text: Axol Assay-Ready Expanded (ARE) Hepatocytes are primary human hepatocytes that have been expanded in vitro. Large batch sizes (up to 2000 vials) are available, ensuring a reliable, ready-to-use and consistent source of primary hepatocytes. ARE Hepatocytes express CYP enzymes, are metabolically functional, are polarized and can be infected by the Hepatitis C virus. AXOL ARE-hepatocytes express CAR negating the need to transfect with a CAR-expressing plasmid.
• AXOL assay-ready expanded (ARE) hepatocytes (Axol, ax3701) • ARE hepatocyte thawing medium (Axol, ax3705) • ARE maintenance medium (Axol, ax3710) • Virimer red transfection reagent (Lipocalyx, VR04-02-15) • CITCO, lucifierase, β-galactosidase and BCA kits as described above
ARE hepatocytes were cultured and transfected as described in the manufacturer's manual. 200,000 cells were seeded in 2 ml culture medium in collagen-coated 6 well plate. The cells were incubated for 4 h at 37° C. and 5% CO2 for sufficient adhesion. 200 μl of transfection mixture containing the DNA to be transfected (PB1-MinTK/PB1-CMV/PB1-SV40 operably linked with luciferase and β-galactosidase containing promoter) was added and the cells were incubated on an orbital shaker at 100 rpm for three hours at 37° C. and 5% CO2. 3 hrs after transfection CITCO was added to the appropriate wells. Cells were incubated under static conditions at 37° C. and 5% CO2 overnight and in the morning the medium was replaced with fresh ARE Hepatocyte Maintenance Medium. Readout was 24 hrs after induction. […]

AXOL ARE hepatocytes = test: Luciferase expression from pAAV constructs in AXOL ARE hepatocytes without CITCO, with CITCO and after CITCO withdrawal; format: cell-based, human; details: pAAV vector
Experimental: Luciferase expression from the PB1-MinTK and PB1-2-MinTK constructs in the pAAV vector in AXOL ARE hepatocytes is inducible by CITCO (1 μM) but reduces after removing CITCO as shown in FIG. 5.

[2] = AAV9, phenobarbital intraperitoneally

B1: PB1-2-MinTK: promoter: 3×PBREM and min-TK promoter, SEQ ID NO: 11 (nucleic acid)
DNA: TCTGTACTTTCCTGACCTTGGCACAGTGCCACCATCAACTTGCCTGACACCCATTACTCGCATCCATTCTCTCTGTACTTTCCTGACCTTGGCACAGTGCCACCATCAACTTGCCTGACACCGCACTGAAGGTCCTCAATCGTCTGTACTTTCCTGACCTTGGCACAGTGCCACCATCAACTTGCCTGACACCGCTGGGAGTTCGTAGACGGAGATCCGGCCCCGCCCAGCGTCTTGTCATTGGCGAATTCGAACACGCAGATGCAGTCGGGGCGGCGCGGTCCGAGGTCCACTTCGCATATTAAGGTGACGCGTGTGGCCTCGAACACCGAGCGACCCTGCAGCGACCCGCTTAACAGCGTCAACAGCGTGCCGCAGATCTCGAGGAGCTTGGCGAGATTTTCAGGAGCTAAGGAAGCTAAAC
modifications: PB1-2-MinTk (3xPBREM)
In the case of B1, the “luciferase expression before induction” value (CD1 male mice; 0 hrs) is reported as “no expression of the luciferase gene”, the “time at which induction is complete” value (CD1 male mice; [2]) is reported as 48 h and the “time of maximal activity after induction” value (CD1 male mice; [2]) is reported as 24 h. For the same molecule, the “tissue distribution of luciferase expression” value (CD1 male mice; AAV9 via tail vein) was “confined to the liver”, the “induction of luciferase expression across pGL4.10 and pAAV vectors and cell types” value [1] was “comparable across vectors and cell types” and the “induced luciferase expression as a ratio to CMV-IE” value (AXOL ARE-hepatocytes) was 4.1. For the same molecule, the “luciferase expression with CITCO” value (AXOL ARE hepatocytes; CITCO (1 μM)) was “inducible” and the “activity of the promoter after removal of CITCO” value (AXOL ARE hepatocytes; CITCO withdrawal) was “almost baseline levels”.
